The target of this assay is TGFβ1 (PeproTech Inc, Rocky Hill, N.J.). Briefly: cell-based or functional assay.

Turning to “human decorin (Accession #NM-001920), expressed in human corneal fibroblasts (HSF) from pcDNA3.1-decorin (from UniProt P07585 31-359)”, the SMA RNA level (real-time PCR), decorin-transfected vs un-transfected HSF with TGFβ1 1 ng/ml is more than 6 fold; the SMA protein level (western blot), decorin-transfected vs un-transfected HSF with TGFβ1 stood at 83%; the SMA-stained cells (immunocytochemistry), decorin-transfected vs un-transfected HSF with TGFβ1 was 79%; the collagen type I RNA level (real-time PCR), decorin-transfected vs naked-vector transfected HSF with TGFβ1 1 ng/ml worked out at 1 fold. This substance yielded a collagen type III RNA level (real-time PCR), decorin-transfected vs naked-vector transfected HSF with TGFβ1 1 ng/ml of 0.9 fold; a collagen type IV RNA level (real-time PCR), decorin-transfected vs naked-vector transfected HSF with TGFβ1 1 ng/ml of 3.2 fold; a fibronectin RNA level (real-time PCR), decorin-transfected vs naked-vector transfected HSF with TGFβ1 1 ng/ml of 3.1 fold.

These data come from patent US20130158103A1.
